Measured values as given in PMC10470860.

Key:
[1] = test system: RFTS-containing DNMT1 wild-type (human); experiment: fluorescence polarization; conditions: 5-methylcytosine on one strand (hemimethylated), 100 nM DNA, 28 °C, triplicate, hyperbolic fit, buffer, salt and pH not given (as in ref [25])
[2] = test system: RFTS-containing DNMT1 A554V (human); experiment: fluorescence polarization; conditions: 5-methylcytosine on one strand (hemimethylated), 100 nM DNA, 28 °C, triplicate, hyperbolic fit, buffer, salt and pH not given (as in ref [25])

## 18 bp hemimethylated duplex DNA
[1]
  Kd: 4600 nM
[2]
  Kd: 550 nM
